Source: the DeepSol protein solubility set

Assay: soluble on expression in E. coli; label from the status in PepcDB or PDB records

Sequence	soluble on expression in E. coli
MAHHHHHHMKDKLRAMGHPAMDAADREDSHAGCFSDSVGMQTYSLNTSLGAMHIMSRLNNEMSFVEDTASGSFGVVKKGVLDLDRQCYAVKQTKRVISGEGDLQQRLQEVYTLSACSHPNVLRYFDGWVEDRAVFVRTEWLSDGSVADFDRPFSEALLRSVIHQIASALHWLLCHHITHRDVKPENILARKMEDGTYTFKLADFGLARPLFRDRPNTGEEFRGTNDDDGDRRYLSPEAFAISEFSQQKGEADVYALGASCVELMGGDPSLVRNGCYTGNFHIYSAELQNLVQWMTRLDPQERPDAFMVALLTVDPALKSTRGFARRMAAIEGLRASVAELEKKVAETNATEKEEGGA	soluble
MAHHHHHHMKGGKQKFDRAIHKTEGMDGALPNEVLEPLEEVYKPSLRVDVTAEPPEENENSTGTTPVTSVTPHVSTNIFVAGLPPSWDENDLRKKFQEFGEIISTRLVRQRHFAFVMFRRPESAHAAINATHLTHPTPNSSMFLHVSIAMHDEGVDEIPNDRIFIRGLPQWANKDHLRHCFSRFGSIVDSAVLMNPLGQCKGSGFVQFSSIDEATEAIKARKTIRIENWDAELEIKYSETAEVRQQRQERNKNRQRHSPKYGQHQLQYQLFNSSASVVSPIPAFPVLGMSAPFPFFYPRPALSPAASPHIIYSPMVPSPVVPVYPSPPVVFKSKLDLFPSSGDLLFTGVSLTESTLLSLLQCYGKVESKDIFDDAGAAVRMVDRGLHAIIVQQLNGTIFPDGKVMSVVLYP	not soluble
MAHHHHHHMKGVIFCLVVLLWRQAWVSSKSHKCDFTKEKYLLSGEKEVSCEIDANPSDDITFICPNKIDSLCFHTVNISKNINQNKSTMSIQDLLYGSVVYGNTLFISPYVRTNTPFYCFCNLDTVTIQKFLKINRFLKDDDELSEADVMKHLKGGNVSEAQADEYLNKALNRFKKMKDLSKFFNDQADNTTKLNLPKSLNIPNDILNYDVYNSSNNRNDIVVKDEVTNKQIISKRGIMSVFVRSNNNVIKGCDFGNNNKNYFSHPISVAGKVNNKVCKIQGKPGELVGFKCAFEENGKVEPPNCFDQVLHKNKVTDLKTLIPGYASYTNKHSSKYPYYLKIPHFVNEQYTIQCKCKSNNSQNEYTFELDIQPGESEVVLNSFKTS	not soluble
MAHHHHHHMKKPEHVRNIVYEIKRKVQIPVSVKIRTGVDDCDSFPFLRSFIECVSSVGCTHFIVHARKAWLKGLDPKQNRSVPPLQYSKVYTLCQLYPHLKFTLNGGIKTIEEAVALLNGYLPREDKCDGEKTYVQVQNYHVNPLNGVMLGRACMENTTVLSQTDQLVYNEKPPHTAFSRRTVLDAYKSYLEENSSLCSLSSAFELLKPILGILKGMPGHRIFRNKVDMYIRNYSSTLPCSGILEKAMVDVDAVAPGCLDLPLADYKLQQEYIKNY	not soluble
MAHHHHHHMKLLLQADTPGGAAEREANPKYLSTDTLIIVPGHGVLNAPNASEWKNESEWCLEPHQLRAGVVLPLCFASHIRRGLEILRDQINTSILIFSGGQTCGIAGPRSEALGYYIVAKESKLFGIFEPEYVAKDIMNGRIFTEEFARDSYENLLFSIARFYEVTGHFPGSVVVVGWKHKAERFTMYHREAIRFPADKFTYVGLDFADAEPFVEDLQPYQVAKPYTDENALSSVSKDMYLCDAGRRTRSKRNPYFRVPPYLVSCPPLRQLLQHCGPELIDTRRVPWK	not soluble
MAHHHHHHMKLMLKKKKKGRKRKRSYYKEIESLFWTAEDYNFDKDKQYLENIDKNMLVKLFELICFYSLKDLHVYEEQALITSKMLDIIQIPEGRAFYGFQMCMENIHDEVYACIFETYIPDSKQKRVIINKVIELDSVLKKQKWLTEIFESNIPYYNKLVLLYISKVLFNGTLNILIGYCKENSILPCLCNVHEKIHRDEYLHGDFSVMCCNHLVNKLKYEHVLDYFKMAVDLEYQFSLEMLELNVLKIKKEQVRAFLEYLTDTMLTNLKYPKHYNSKYPFSWPEFTKIIVNENGKEETVKKGENVYGEKQILFDEDF	not soluble
MAHHHHHHMKLQKQQQQKRMTGLKEKRIACRLTYIWLSGRDSHHDIRSKDRTAYLTTEEVAKHPKELLADGIFPVWNFDGSSTKQVCGADTEILLNPVNAYHCCLPRLSTTVPWILVLAECCLPNGEPTNDNSRAVARRIFERAPEEHPWFGMEQEFFLIKDGHPYGWPPRGFPAPQGPYYCSTGCLCVHGRRYVDLHYEVCLQMGLNISGTNAEVAPGQWEFQVGPCEGIEMGDQLTVARWVLLRILEDDGLDADYRAKPIRGEWNGSGLHTNFSTASTRNENGLSVIYEYVERLKKTISKDIVLYGAENNERLTGKYETSKPNEVTAGVGTRGTSIRIPNAVAAERKGYMEDRRPAGDADPYLVSARLFASCVCIESPELDLISSFHERSWMKFGDLS	soluble
MAHHHHHHMKQSDFIFFVLRFWHFVPPYIIEKYAVSAFLNEDFLRAIRLKIEELRPPGRREPHSCVLKEHSDTSFTRKEVLPPPERLSNPVAMDHWVLYEPKVQNFPLVDGFFLVDSNPMTLVGLRMTTAGEHRTTTSTVRQFTECLAAYFNGWEELSRDMSWEIINVQHADSTPINDWQRCDVVDSDNVSRAENREIAAFWEEEVRQYIAAVSSGDF	not soluble
MAHHHHHHMKRIVAPRRWSAINRVEHPPLMPKQLLQSVCGGLRWLESKSLAEFLAKRAIEEGFPCTKKQQRIFDARPPSSRPALRKSRLHKKCPARRSGGDVQRTEGSLEAPRTTGASGALVSSGAALALNSSAFDALVPLAKRKRLVSYDVLDCTFGSGFHTGVVLENGRPYTRVVAMDCDVEATVSAREIVDEFGADRFRFYARPMSEAKAMFGERSFDAVMIDPGPSSTQLENPERGFLLNDESDHALDMRYGPTHGLGALEYLNTVPQHALSGALASYELLTPQQSMKLARAIRQRRPFDGAQRVLEAVEEAGNELPEEGWGTQGSRRKTSMSWNFMTSLRCIVNHERHELSEALQNALLLLRTDGRLVVFSRLPWEEKLISTTISQHPHALLSYSEAIPIEDVQEHGHSRHTKMWIVTRTQGSSYVLKNSQTLTGEAVQESSMRWMSGLFAGQTFGFPANNFTFENKDGKDWAAVRRNKNSPPFDSDDDPRG	not soluble
MAHHHHHHMKTLAKKTLQGGVSGKCGSQIIIAHGLLGNSTNWMSVGRRLAAHDGVRGRLEEIHMLDMRNHGESPHFNAHTNATMASDIEHFVLQQQRQWQSRAGAEGDGGIVLIGHSMGGFAVMGSMLRRANETSLLLQSGVEELEQRCKRGDYYGWCDEQGNAAEMRAVNRAMGLPETQPLYDILYDCKGDNVARPPRVKAVVIVDITPSTALGTHRQHGQNSSETLDAMVAADLSRVHSFGDGNAELERVGVSNKAMRDFLLTNLRLDPRTKEATWRCNLPVLRADYNSIALGVSGWFLSASEKVSRDRGGELVAPLRCSLPTLFVFGQNSPYNTPEDRRLIPRFFSNAIEVEVEGAGHFVHYEKMQEFVNVVVPFLTEYL	not soluble
MAHHHHHHMLRSTLTSLNTFLTSSVATPPISVIRTGPKWWADPERMVRQKLMYFTLGVDQLPLRRTAVIQRDLQRFHMCKPPPRVGDSTGYKRSRAAQLNTWYRRIQYQEYHMQHLFTRHVWGLLRVYPGNTTKIQGKADDGYVGYDSVPFHRYNRAPLPFPARELYERRK	not soluble
MAHHHHHHMLRVIVRRLAWRPAAIQHLPDLGSKDAPKKTEDTQRQYRPLSLRARQALAEKSDEVQYHVITQDWFGQRVDTFLTQHHPEWSYETMKTLVQQGHIYRYRKNGKKRFTRITDRLEFDELLVVPTPVFYERQLAPPTGVLQESKKPTHFKLSSQVREMAHNMVLFKNEHVIVINKPHGVPMMPTSDPQEMNIAAMLSAWKYTNSTKPIVCHNLDKETSGCVVLARSKNAHRMLARMFVKRVVPNSVYWGFCVGKPSVNFGRIRMHFEMTRGTKGDIIVARPSPTKTSKVGIAEFVVNASALEFGSFISFYPLTTRRHQERIMAAHALRSPLLGDAKYGGESAFPSSMSLFWDPEDKGLPLHLHHRKIQLPYKNSTGEFVCVTAPLPIHMEKTFKKLGWPCDVDDPLIPG	not soluble
